The target in assay [1] is Streptomyces lydicus Family 2B encapsulin shell protein Sl‐Enc2 with N‐terminal His‐tag (Streptomyces lydicus). Kind of assay: cryo-EM structure; Sl‐Enc2 majority mixed sample, 2 mg/mL in 150 mM NaCl, 25 mM Tris pH 8.0; consensus refinement with icosahedral symmetry imposed, 2.59 Å.
Assay [2] deals with Streptomyces lydicus Family 2B encapsulin shell protein Sl‐Enc1 with N‐terminal His‐tag (Streptomyces lydicus). Kind of assay: affinity purification with mass spectrometry; two-gene operon co-expressed in E. coli BL21 (DE3), only one of the two shell proteins His-tagged; Ni-NTA then SEC; SDS-PAGE bands identified by tryptic digest and LC-MS; ratio by gel densitometry.

In assay [1], “Streptomyces lydicus Family 2B encapsulin shell protein Sl‐Enc2 with N‐terminal His‐tag (natural protein)” returned a stoichiometry N of 60.
Turning to “Streptomyces lydicus Family 2B encapsulin shell protein Sl‐Enc2, untagged (natural protein)”, in assay [2], the apparent share of Sl‐Enc1 in the purified mixed shells (gel densitometry) worked out at 60% and the apparent share of Sl‐Enc2 in the purified mixed shells (gel densitometry) was found to be 40%.

For orientation: stoichiometry N means the number of molecules, sites or subunits per partner or assembly.

The record behind these values is publication PMC12407261.
